Data taken from article PMC9304148.

Experiments:
[1] = target: CarHCfe (Cystobacter ferrugineus CarH), purified (Cystobacter ferrugineus); assay: SEC; analytical size exclusion, Superdex200 HR 10/30; 100 ul of 50-100 uM pure apoprotein alone, in the dark; dimer by apparent Mr
[2] = target: CarHCfe (Cystobacter ferrugineus CarH), purified (Cystobacter ferrugineus); assay: SEC; analytical size exclusion, Superdex200 HR 10/30; 100 ul of 50-100 uM protein after 15-min incubation with five-fold molar excess of AdoCbl, in the dark; dimer by apparent Mr
[3] = target: CarHCfu (Cystobacter fuscus CarH), purified (Cystobacter fuscus); assay: SEC; analytical size exclusion, Superdex200 HR 10/30; 100 ul of 50-100 uM pure apoprotein alone, in the dark; dimer by apparent Mr
[4] = target: CarHCfu (Cystobacter fuscus CarH), purified (Cystobacter fuscus); assay: SEC; analytical size exclusion, Superdex200 HR 10/30; 100 ul of 50-100 uM protein after 15-min incubation with five-fold molar excess of AdoCbl, in the dark; dimer by apparent Mr
[5] = test system: CarHCfu (Cystobacter fuscus DSM 2262 (strain as in the genome table)); assay: EMSA; details: EMSA: 0.1 M KCl, 10 mM MgCl2, 25 mM Tris-HCl pH 8, 1 mM DTT, 10% glycerol, 200 ng/ul BSA, 1 ug salmon sperm DNA, 1.2 nM probe, AdoCbl 5-fold over protein, 37 °C

CarHCfe (Cystobacter ferrugineus CarH), purified (natural protein)
stoichiometry N [1]: 2
stoichiometry N [2]: 2

CarHCfu (Cystobacter fuscus CarH), purified (natural protein)
stoichiometry N [3]: 2
stoichiometry N [4]: 2

Pcrt Cfu 170 bp
Kd [5]: 34.7 nM
